Experimental data: US20100048468A1 (Amgen, published 2010)
Like-named read-outs stand apart in the source and are kept apart here. Positions of bridges follow the written chain, without caps; N, C: chain ends. No end group written: not given here.

What was measured:
human GLP-1 receptor [1] = target: T1, human GLP-1 receptor (human, UniProt P43220 24-463); assay: 125I-GLP-1 displacement, membranes of CHOK1 cells expressing human GLP-1 receptor
human GLP-1 receptor [2] = target: T1, human GLP-1 receptor; assay: cell-based or functional assay
mouse GLP-1 receptor [3] = target: T2, mouse GLP-1 receptor (mouse, UniProt O35659 22-463); assay: cell-based or functional assay
T2 sequence (looked up): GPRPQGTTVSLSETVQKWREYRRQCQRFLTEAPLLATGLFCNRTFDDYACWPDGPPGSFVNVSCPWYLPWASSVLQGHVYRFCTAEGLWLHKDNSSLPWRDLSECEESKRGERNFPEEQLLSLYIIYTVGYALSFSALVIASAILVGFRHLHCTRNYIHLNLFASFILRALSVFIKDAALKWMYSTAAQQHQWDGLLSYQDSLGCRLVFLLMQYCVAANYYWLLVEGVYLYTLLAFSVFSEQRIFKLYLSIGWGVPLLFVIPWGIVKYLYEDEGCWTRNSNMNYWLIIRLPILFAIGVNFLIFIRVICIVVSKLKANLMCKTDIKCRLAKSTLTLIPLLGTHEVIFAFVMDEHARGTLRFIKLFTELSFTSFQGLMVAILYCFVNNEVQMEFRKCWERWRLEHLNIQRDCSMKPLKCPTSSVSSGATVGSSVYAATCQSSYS

[4] = target: T3, human GLP-1 receptor (human), P43220; assay: 125I-GLP-1 displacement, membranes of CHOK1 cells expressing human GLP-1 receptor
T3 chain: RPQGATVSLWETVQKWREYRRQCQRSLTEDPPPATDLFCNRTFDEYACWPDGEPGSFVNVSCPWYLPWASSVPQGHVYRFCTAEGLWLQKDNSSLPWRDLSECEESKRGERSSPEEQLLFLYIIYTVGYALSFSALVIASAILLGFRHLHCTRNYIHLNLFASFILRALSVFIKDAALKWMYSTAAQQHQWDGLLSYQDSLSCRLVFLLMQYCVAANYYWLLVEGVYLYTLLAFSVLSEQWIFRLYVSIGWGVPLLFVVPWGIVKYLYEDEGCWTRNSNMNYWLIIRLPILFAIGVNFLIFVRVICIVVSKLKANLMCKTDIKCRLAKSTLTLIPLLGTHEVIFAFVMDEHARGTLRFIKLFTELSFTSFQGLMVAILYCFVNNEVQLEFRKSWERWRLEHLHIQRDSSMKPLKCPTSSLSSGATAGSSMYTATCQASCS

[5] = target: T3, human GLP-1 receptor (human), P43220; assay: cell-based or functional assay
[6] = target: T4, mouse GLP-1 receptor (mouse), O35659; assay: cell-based or functional assay
T4 chain: T2 sequence (looked up)

human GLP-1 receptor [7] = target: T1, human GLP-1 receptor; assay: 125I-GLP-1 displacement, membranes of CHOK1 cells expressing human GLP-1 receptor
Method: Membrane Preparation. […] Cells were sedimented at 1500 rpm for 10 minutes. The resulting pellets were homogenized in 15 mls of ice cold sucrose buffer (25 mM Tris-HCl, 0.32 M Sucrose, 0.25 g/L, sodium azide, pH 7.4) with a motorized, glass fitted, Teflon homogenizer. The homogenate was centrifuged at 48,000×g at 4° C. for 10 minutes, resuspended in 25 ml assay buffer (50 mM Tris-HCl, 5 mM MgCl₂, 10 mg/ml protease-free BSA, 0.1 mg/ml STI, and 0.1 mg/ml Pefabloc, pH 7.4) with a Tissue-Tearor (Biospec Products), then centrifuged again at 48,000×g for 10 minutes. The pellets were homogenized for a third time in 15 ml assay buffer using the Tissue-Tearor and again centrifuged at 48,000×g for 10 minutes. The resulting pellet was resuspended in assay buffer at a wet weight concentration of 4 mg/ml.
Ligand Binding Assay. Binding assays were performed in 96-well U-bottom plates. […] The reaction was terminated by rapid filtration through Unfilter-96 GF/C glass fiber filter plates (FilterMate 196 Packard Harvester, PerkinElmer, Shelton, Conn.) pre-soaked in 0.5% polyethylenimine, followed by three washes with 300 μl of cold 50 mM Tris-HCl, pH 7.4. Bound radioactivity was determined using a TopCount microplate scintillation and luminescence counter (Packard Instrument Company, PerkinElmer, Shelton, Conn.). […]

human GLP-1 receptor [8] = target: T1, human GLP-1 receptor; assay: cell-based or functional assay; remark: listed apart in the source
mouse GLP-1 receptor [9] = target: T2, mouse GLP-1 receptor; assay: cell-based or functional assay; remark: listed apart in the source

HGEGT FTSDV SSYLE [Aib]QAAK EFIAW LVKGR-AMIDE (SEQ ID NO: 14) (peptide)
IC50 (human GLP-1 receptor [1]): 2.5 nM | EC50 human (human GLP-1 receptor [2]): 16 pM | EC50 mouse (mouse GLP-1 receptor [3]): 0.15 nM

B1: cgGLP-10 (SEQ ID NO: 10 + 20k PEG dimer) (peptide)
peptide: HGEGTFTSDVSSYLEGQAAKEFIAWLVKGRGCSG
modifications: not checked
IC50 [4]: 100 nM | EC50 human [5]: 0.6 nM | EC50 mouse [6]: 4 nM

B2: cycloE22-O26 (SEQ ID NO: 69) (peptide)
peptide: HGEGTFTSDVSSYLEEQAAXEFIAWLVKGRG
modifications: ornithine at position 26 (GLP-1 numbering; residue 20 of the entry); side-chain cyclic lactam between Glu22 and Orn26; C-terminal amide
notes: Not pegylated
IC50 (human GLP-1 receptor [7]): 3.7 nM | EC50 human (human GLP-1 receptor [8]): 51 pM

B3: GLP1(7-37) cyclo[Lys16-Glu20] (SEQ ID NO: 159) (peptide)
peptide: HGEGTFTSDVSSYLEKQAAEEFIAWLVKGRG-NH2
modifications: lactam 16-20; N-terminus assumed
SMILES: CC[C@H](C)[C@H](NC(=O)[C@H](Cc1ccccc1)NC(=O)[C@H](CCC(=O)O)NC(=O)[C@@H]1CCC(=O)NCCCC[C@H](NC(=O)[C@H](CCC(=O)O)NC(=O)[C@H](CC(C)C)NC(=O)[C@H](Cc2ccc(O)cc2)NC(=O)[C@H](CO)NC(=O)[C@H](CO)NC(=O)[C@@H](NC(=O)[C@H](CC(=O)O)NC(=O)[C@H](CO)NC(=O)[C@@H](NC(=O)[C@H](Cc2ccccc2)NC(=O)[C@@H](NC(=O)CNC(=O)[C@H](CCC(=O)O)NC(=O)CNC(=O)[C@@H](N)Cc2c[nH]cn2)[C@@H](C)O)[C@@H](C)O)C(C)C)C(=O)N[C@@H](CCC(N)=O)C(=O)N[C@@H](C)C(=O)N[C@@H](C)C(=O)N1)C(=O)N[C@@H](C)C(=O)N[C@@H](Cc1c[nH]c2ccccc12)C(=O)N[C@@H](CC(C)C)C(=O)N[C@H](C(=O)N[C@@H](CCCCN)C(=O)NCC(=O)N[C@@H](CCCNC(=N)N)C(=O)NCC(N)=O)C(C)C
EC50 human (human GLP-1 receptor [8]): 16 pM | EC50 mouse (mouse GLP-1 receptor [9]): 0.1 nM
